Common to all, as to format: cell-based, human
For data set [1], the system named is HEK293-F cells. As to the kind of experiment: Luciferase expression from hypoxia-inducible promoters in transiently transfected HEK293-F cells under hypoxia. To be noted: hypoxia 5% oxygen, 3, 5 and 24 hrs. How it is done: (§1) 40 ml of cells were grown in a 250 ml vented Erlenmeyer flask (Sigma-Aldrich CLS431144) at 37° C., 20% O2, 8% CO2 with agitation at 100 rpm. Cells were seeded as described in the manufacturer's instructions (300,000 cells/ml). HEK293-F were obtained from Thermofisher, R79007.
(§2) One day before transfection, the cells were counted using a haemocytometer and split to 500,000 cells/ml.
On the day of transfection, the cells are seeded to 1,000,000 cells/ml in 500 μl of appropriate medium (Freestyle 293 expression medium, 12338002) in a 24 well plate. 0.625 μg of DNA per well was then added to 10 μl of OptiMem medium (Thermofisher; 11058021) and incubated for 5 minutes at room temperature. […]
After transfection the cells were incubated for 24 hrs in normoxia conditions (20% oxygen) before being switched to a gas mix of 5% oxygen, 10% carbon dioxide and 85% nitrogen (hypoxia). […] Induction of the promoters was assessed by using luciferase activity after 3, 5 and 24 hrs in hypoxia.
Luciferase activity was measured using LARII (Dual Luciferase Reporter 1000 assay system, Promega, E1980).
Media was removed from the cells at the respective time point (0, 3, 5, 24 hrs after induction). […] 10 μl of supernatant was pipetted into white 96-well plate and luminescence measured by addition of 50 μl of LARII substrate. […]

Data set [2] deals with Pro10 cells. As to the kind of experiment: Rep78 expression (western blot) from new forskolin promoter designs in Pro10 cells. The conditions noted are these: Pro10, 10 uM forskolin or DMSO, 24 hrs. Here is the method:
Each of the promoters were tested for their ability to induce expression of the Rep78 protein. To eliminate the expression of Rep52 the ATG start codon in Rep52 was mutated to an AGG. All constructs were synthesized by Genewiz, see sequence files for full plasmid.
Pro10 cells were cultured and transfected using lipofectamine 2000 as previously described herein above. 24 hrs after transfection 10 uM forskolin was added to the cells. Control wells were given DMSO as forskolin was dissolved in this carrier. After another 24 hrs the cells were then lysed and lysates were analyzed for Rep78 expression via western blot (previously described). The best performing promoters were the TATA-m6a, YB and pJB42 (FIG. 29). […] The rest of the promoters have some level of background which indicates leaky expression.

Data set [3] concerns HEK293-F cells. Kind of data set: Luciferase expression from forskolin-inducible promoters in HEK293-F cells after induction with forskolin. The conditions noted are these: 20 μM forskolin. Here is the method:
The forskolin-inducible promoters FORCSV-10, FOR-CMV-009, FMP-02 and FLP-01 were used to drive expression of luciferase in a PM-RQ vector in the suspension cell line HEK293-F. The tested promoters were synthesized directly upstream of the ATG of PM-RQ plasmid and the suspension cell lines were transiently transfected with the PM-RQ plasmid.
as §1, §2
On the day of transfection, the cells are seeded to 1,000,000 cells/ml in 500 μl of appropriate medium (Freestyle 293 expression medium, 12338002) in a 24 well plate. 0.625 μg of DNA per well was then added to 10 μl of OptiMem medium (Thermofisher; 11058021) and incubated for 5 minutes at room temperature.
Concurrently, 0.625 μl of Max reagent (Thermofisher, 16447100) was made up to 10 μl by addition of OptiMem and incubated for 5 minutes at room temperature. […]
24 hours after transfection, the promoters were induced by addition of 20 μM forskolin and luciferase activity was measured 0, 3, 5 and 24 hours after induction. Luciferase activity was measured as previously described.

For data set [4], the system named is Pro10 cells. Kind of data set: Activation of FORN-pJB42 driving Rep78 by adenovirus helper functions. The conditions noted are these: with and without adenovirus helper functions, forskolin or DMSO. How it is done: The ability for the aforementioned helper functions to induce the activity of the best performing promoter FORN-pJB42 was next assessed. Transfections were carried out as previously described. Conditions were as follows: FORN-pJB42 controlling expression of Rep78 was transfected with and without the adenovirus helper functions. In addition, the transfected cells were also treated with forskolin at […] or vehicle DMSO control. Analysis of activity was as described in the previous section. […] However, it should be noted that full activity is not obtained until both the adenovirus helper functions and 10 μM forskolin were present.

B1: SYNP-HYP-001: synthetic hypoxia-inducible promoter, four HRE2 and a CMV minimal promoter, SEQ ID NO: 3 (nucleic acid)
DNA: CTGCACGTACTGCACGTACTGCACGTACTGCACGTATGGGTACCGTCGACGATATCGGATCCAGGTCTATATAAGCAGAGCTCGTTTAGTGAACCGTCAGATCGCCTAGATACGCCATCCACGCTGTTTTGACCTCCATAGAAGATCGCCACC
For the molecule B1, the “promoter activity (luciferase) relative to the other promoters” value in the data set with HEK293-F cells [1] was “stronger”.

B2: TATA-m6a: forskolin responsive enhancer element in combination with TATA-m6A minimal promoter, SEQ ID NO: 209 (nucleic acid)
DNA: AATAAAATATCTTTATTTTCATTACATCTGTGTGTTGGTTTTTTGTGTGCCATTGACGTCACGATTTGACGTCAACCATTGACGTCACGATTTGACGTCAACCATTGACGTCACGATTTGACGTCACGATTTGACGTCAACCATTGACTCACGATTTGACTCAACCATTGACTCACGATTTGACTCAACCATTGACTCACGATTTGACTCACGATTTATAAAAGGCAGAGCTCGTTTAGTGAACCGAAGCTTGGACTAAAGCGGACTTGTCTCGAG
Turning to B2, the “Rep78 expression (western blot)” value in the data set with Pro10 cells [2] is “no Rep78 expression in the absence of forskolin but strong expression on the presence”.

B3: FORCSV-10: forskolin-inducible promoter, 5×cAMPRE and 3×AP1(2) TFBS with SV40-MP, SEQ ID NO: 6 (nucleic acid)
DNA: TGACGTCACGATTACCATTGACGTCACGATTACCATTGACGTCACGATTACCATTGACGTCACGATTACCATTGACGTCAGCGATTAAGATGACTCAGCGATTAAGATGACTCAGCGATTAAGATGACTCAGCGATTAAGATGACTCACTAGCCCGGGCTCGAGATCTGCGATCTGCATCTCAATTAGTCAGCAACCATAGTCCCGCCCCTAACTCCGCCCATCCCGCCCCTAACTCCGCCCAGTTCCGCCCATTCTCCGCCCCATCGCTGACTAATTTTTTTTATTTATGCAGAGGCCGAGGCCGCCTCGGCCTCTGAGCTATTCCAGAAGTAGTGAGGAGGCTTTTTTGGAGGCCTAGGCTTTTGCAAA
For B3, in the data set with HEK293-F cells [3], the “promoter strength relative to the other promoters” value is on record as “strongest”.

B4: FORN-pJB42: forskolin responsive enhancer element in combination with pJB42 minimal promoter, SEQ ID NO: 211 (nucleic acid)
DNA: AATAAAATATCTTTATTTTCATTACATCTGTGTGTTGGTTTTTTGTGTGCCATTGACGTCACGATTTGACGTCAACCATTGACGTCACGATTTGACGTCAACCATTGACGTCACGATTTGACGTCACGATTTGACGTCAACCATTGACTCACGATTTGACTCAACCATTGACTCACGATTTGACTCAACCATTGACTCACGATTTGACTCACGATTCTGACAAATTCAGTATAAAAGCTTGGGGCTGGGGCCGAGCACTGGGGACTTTGAGGGTGGCCAGGCCAGCGTAGGAGGCCAGCGTAGGATCCTGCTGGGAGCGGGGAACTGAGGGAAGCGACGCCGAGAAAGCAGGCGTACCACGGAGGGAGAGAAAAGCTCCGGAAGCCCAGCAGCGGCCACC
Turning to B4, the “activation of the promoter driving Rep78” value in the data set with Pro10 cells [4] is reported as “activated by the presence of the helper functions, even in the absence of forskolin”. In addition, the “Rep78 expression (western blot)” value in the data set on Pro10 cells [2] is recorded as “no Rep78 expression in the absence of forskolin but strong expression on the presence”.

B5: FMP-02: forskolin-inducible promoter, 8×AP1(1) TFBS with MinTK, SEQ ID NO: 8 (nucleic acid)
DNA: TGAGTCAGATGATGCGTAGCTAGTAGTTGAGTCAGATGATGCGTAGCTAGTAGTTGAGTCAGATGATGCGTAGCTAGTAGTTGAGTCAGATGATGCGTAGCTAGTAGTTGAGTCAGATGATGCGTAGCTAGTAGTTGAGTCAGATGATGCGTAGCTAGTAGTTGAGTCAGATGATGCGTAGCTAGTAGTTGAGTCAGTAGTCGTATGCTGATGCGCAGTTAGCGTAGCTGAGGTACCGTCGACGATATCGGATCCTTCGCATATTAAGGTGACGCGTGTGGCCTCGAACACCGAGCGACCCTGCAGCGACCCGCTTAA
For the molecule B5, in the data set on HEK293-F cells [3], the “promoter strength relative to the other promoters” value is “weakest”.

For the origin of these results see patent US20230407326A1, “INDUCIBLE PROMOTER FOR VIRAL VECTOR PRODUCTION” (ASKLEPIOS BIOPHARMACEUTICAL, INC., priority 2020, published 2023).
